Measured values published in patent US20200325476 (published 2020).

B1: a-syn-3 (GdJUhe) (ssDNA)
DNA: ATAGTCCCATCATTCATTGTATGAGATGGGGTGGTGACGTCAGCATGGAGATATTAGCAAGTGTCA
B2: a-syn-1 (1LBwAAjJ) (ssDNA)
DNA: ATAGTCCCATCATTCATTGTAAGGAAACGCTACGGGGTGGGTACGGCAAGATATTAGCAAGTGTCA
B3: a-syn-2 (1LBiGJFJC) (ssDNA)
DNA: ATAGTCCCATCATTCATTGTATGGTACGGCGCGGTGGCGGGTGCGGGGAGATATTAGCAAGTGTCA
B4: M5-15 (ssDNA)
DNA: ATAGTCCCATCATTCATTGTATGGTACGGCGCGGTGGCGGGTGCGTGGAGATATTAGCAAGTGTCA

Assays:
[1] = biological target: T1, alpha-synuclein (monomer) (UniProt P37840 P37840:1-140); experiment: MST; 1x PBS, 0.05% Tween-20, 25 C; 50 nM aptamer
[2] = biological target: T1, alpha-synuclein (monomer); experiment: footprint; DNase I; apparent Kd estimated from three bands but value not given in text; DPBS, 37 C
[3] = biological target: T1, alpha-synuclein (monomer); experiment: footprint; DNase I; positive control; apparent Kd estimated from three bands but value not given in text; DPBS, 37 C

Row | Binder | Kd [1] [nM] | also measured
1 | B1 | 94.2 | 
2 | B2 |  | binding result [2]: binds
3 | B3 | 286 | 
4 | B4 |  | binding result [3]: binds
